Tests used:
[1] = biological target: T1, recombinant biotinylated single-chain HLA-A2/pp65 495-503 complex (human; cytomegalovirus (CMV)); assay: SPR, Biacore 2000; biotinylated HLA-A2/pp65 on streptavidin chip
[2] = biological target: T1, recombinant biotinylated single-chain …

B1: H9 Fab (soluble recombinant Fab, monomer) (Fab, V domains shown)
VH: EVQLVQSGAEVKKPGSSVKVSCKASGGTFSSYAISWVRQAPGQGLEWMGGIIPIFGTANYAQKFQGRVTITADESTSTAYMELSSLRSEDTAVYYCARGDLYYYDSSGYPRYYFDYWGQGTLVTVSS
VL: ETTLTQSPGTLSLSPGERATLSCRASQSVSSSYLAWYQQKPGQAPRLVIYGASSRATGIPDRFSGSGSGTDFTLTISRLEPEDFAVYYCQHYSTSPGFTFGQGTKLEIRR
notes: also called Fab H9; H9 Fab monomer
**Q.** B1 was tested. Which koff [1] did it give?
**A.** 0.000879 s⁻¹

**Q.** And the kon [1]?
**A.** 105000 M⁻¹ s⁻¹

**Q.** What about the Kd [2] of the same binder?
**A.** 8 nM

B2: H9 whole IgG antibody (H9 Fab-derived IgG1, kappa) (antibody, V domains shown)
VH: B1 VH
VL: B1 VL
notes: also called H9 IgG; H9 IgG Ab
**Q.** What does the source list for B2?
**A.** koff [1]: 0.00352 s⁻¹; kon [1]: 599000 M⁻¹ s⁻¹; Kd [2]: 5 nM

Reference: US20100111957A1 (TECHNION RESEARCH AND DEVELOPMENT FOUNDATION, published 2010)
